T1: mouse ENTPD2 expressed on cells (mouse, UniProt O55026 1-495)
T1 sequence: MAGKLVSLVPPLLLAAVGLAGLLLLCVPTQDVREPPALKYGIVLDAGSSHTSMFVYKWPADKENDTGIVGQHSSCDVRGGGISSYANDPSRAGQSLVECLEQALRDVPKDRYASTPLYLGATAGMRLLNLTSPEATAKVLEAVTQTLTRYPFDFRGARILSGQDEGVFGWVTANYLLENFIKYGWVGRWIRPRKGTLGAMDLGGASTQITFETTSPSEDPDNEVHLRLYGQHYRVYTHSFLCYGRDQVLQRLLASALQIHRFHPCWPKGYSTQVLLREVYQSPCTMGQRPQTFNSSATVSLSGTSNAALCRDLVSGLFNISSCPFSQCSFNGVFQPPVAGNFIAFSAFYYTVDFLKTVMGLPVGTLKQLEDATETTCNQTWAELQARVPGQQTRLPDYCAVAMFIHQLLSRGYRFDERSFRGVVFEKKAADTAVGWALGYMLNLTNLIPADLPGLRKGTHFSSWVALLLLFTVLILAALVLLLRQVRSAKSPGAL

T2: human ENTPD2 expressed on cells (human, UniProt Q9Y5L3 1-495)
T2 sequence: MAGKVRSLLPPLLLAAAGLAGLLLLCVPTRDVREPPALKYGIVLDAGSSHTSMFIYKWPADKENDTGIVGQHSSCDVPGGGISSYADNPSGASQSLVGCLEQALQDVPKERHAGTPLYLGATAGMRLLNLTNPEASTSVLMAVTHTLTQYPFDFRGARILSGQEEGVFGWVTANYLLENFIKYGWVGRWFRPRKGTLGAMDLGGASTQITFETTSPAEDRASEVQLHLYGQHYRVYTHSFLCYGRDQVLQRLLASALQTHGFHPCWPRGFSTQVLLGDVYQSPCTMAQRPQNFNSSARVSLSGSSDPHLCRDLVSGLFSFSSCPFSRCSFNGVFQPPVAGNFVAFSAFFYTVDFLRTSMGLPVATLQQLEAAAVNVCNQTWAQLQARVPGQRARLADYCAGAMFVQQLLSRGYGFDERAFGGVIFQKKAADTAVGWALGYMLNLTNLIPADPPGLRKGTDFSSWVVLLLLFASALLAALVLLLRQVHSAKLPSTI

T3: cyno ENTPD2 expressed on NIH/3T3 cells (cynomolgus macaque, UniProt Q9Y5L3 1-495 (human entry))
T3 chain: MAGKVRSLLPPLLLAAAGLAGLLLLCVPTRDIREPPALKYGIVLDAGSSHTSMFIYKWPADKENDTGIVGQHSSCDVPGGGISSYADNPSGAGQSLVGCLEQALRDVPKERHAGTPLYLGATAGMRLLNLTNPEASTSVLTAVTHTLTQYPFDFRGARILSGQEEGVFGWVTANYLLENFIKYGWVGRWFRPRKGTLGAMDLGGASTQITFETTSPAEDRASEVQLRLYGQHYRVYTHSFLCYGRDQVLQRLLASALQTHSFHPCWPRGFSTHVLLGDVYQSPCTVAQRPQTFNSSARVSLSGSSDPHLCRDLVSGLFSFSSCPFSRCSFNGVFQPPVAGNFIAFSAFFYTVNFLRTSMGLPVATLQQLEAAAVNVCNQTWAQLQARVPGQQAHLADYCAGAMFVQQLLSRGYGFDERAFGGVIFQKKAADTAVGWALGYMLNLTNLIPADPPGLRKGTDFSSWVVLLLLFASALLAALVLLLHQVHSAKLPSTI

T4: recombinant human ENTPD2 (residues 29-462, Y350A mutant) used in crystallographic studies (human, UniProt Q9Y5L3 29-462, N-linked glycosylation observed at Asn129, Asn294, Asn378 and Asn443)
T4 construct: also called hENTPD2 Y350A; human ENTPD2 (Y350A mutant) ectodomain
T4 sequence: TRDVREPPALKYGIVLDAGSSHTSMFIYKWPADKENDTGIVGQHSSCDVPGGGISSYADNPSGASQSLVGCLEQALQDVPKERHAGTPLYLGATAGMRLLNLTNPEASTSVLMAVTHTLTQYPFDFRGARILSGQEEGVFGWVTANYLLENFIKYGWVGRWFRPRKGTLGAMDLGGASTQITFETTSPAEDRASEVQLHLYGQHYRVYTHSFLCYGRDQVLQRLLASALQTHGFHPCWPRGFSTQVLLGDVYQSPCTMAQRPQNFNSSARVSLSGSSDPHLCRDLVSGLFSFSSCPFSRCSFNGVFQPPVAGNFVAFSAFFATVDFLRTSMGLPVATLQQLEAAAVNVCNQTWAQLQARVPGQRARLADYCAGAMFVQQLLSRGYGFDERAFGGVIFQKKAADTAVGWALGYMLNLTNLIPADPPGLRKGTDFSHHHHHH

B1: ANTI-mouse ENTPD2 MAB15 (antibody, mouse IgG2a, kappa, V domains shown)
VH: QVQLVQSGAELKQPGQSVKISCKASGYTFHHYGMNWVKQAPGQGLKWMGWINTDTGNPTYADDFKGRFVFSLDTSVSTAYLQISNLKNEDTATYYCVRYGTLYSGYGFFFDSWGQGTLVTVSS
VL: DIMMTQSPSSLSVSAGEKATITCKSSQSLFNSNTNKNYLNWYLQKPGQSPKLLFYYASTRHTGVPDRFIGSGSGTDFTLTITSVQDEDLADYYCQQWYSYPWTFGPGTKLEIKR
B2: ANTI-mouse ENTPD2 MAB14 (antibody, mouse IgG2a, kappa, V domains shown)
VH: QVQLVQSGAELKQPGQSVKISCKASGYTFWHYGMNWVKQAPGQGLKWMGWINTDTGNPTYADDFKGRFVFSLDTSVSTAYLQISNLKNEDTATYYCVRYGTLYSGYGFFFDSWGQGTLVTVSS
VL: DIMMTQSPSSLSVSAGEKATITCKSSQSLFNSNTNKNYLNWYLQKPGQSPKLLFYYASTRHTGVPDRFIGSGSGTDFTLTITSVQDEDLADYYCQQWYSYPWTFGPGTKLEIKR
B3: ANTI-HUMAN ENTPD2 MAB17 (antibody, human IgG1, kappa, V domains shown)
VH: EVQLQQFGAELVKPGASVKISCKASGYTFTDYNMDWVKQSHGKSLEWIGDINPKYDISTYNQQFKGKATLTVDKSSSTAYMELRSLTSEDTAVYYCARRGFFLYYGINYYYFDVWGAGTTVTVSS
VL: QIVLTQSPAIMSASLGEEITLTCSASSSVSYIHWYQQKSGTSPTLLIYSTSNLASGVPSRFSGSGSGTFYSLTISSVEAEDAADYYCHQWSSYPWTFGGGTKLEIKR
B4: ANTI-HUMAN ENTPD2 MAB21 (antibody, human IgG1, kappa, V domains shown)
VH: EVQLQQSGPELVKPGASVKISCKTSGYTFTEYTMHWVKQSHGKSLEWIGGINPNNGITTYNQKFKGKATLTVDKSSSTAYMDLRSLTSEGSAVYYCARRGFPIYYYGTSLYYFDYWGQGTTLTVSS
VL: QIVLTQSPAIMSASLGEEITLTCSASSSVSYMHWYQQRSGTSPKLLIYTTSNLASGVPSRFSGSGSGTFYSLTISSVEAEDAADYYCHQWSSYPWTFGGGTKLEIKR
B5: ANTI-HUMAN ENTPD2 FAB23 (Fab, V domains shown)
VH: EVQLQQFGAELVKPGASVKISCKASGYTFTDYNMDWVKQSHGKSLEWIGDINPKYDISTYNQQFKGKATLTVDKSSSTAYMELRSLTSEDTAVYYCARRGFFLYYGINYYYFDVWGAGTTVTVSS
VL: QIVLTQSPAIMSASLGEEITLTCSASSSVSYIHWYQQKSGTSPTLLIYSTSNLASGVPSRFSGSGSGTFYSLTISSVEAEDAADYYCHQWSSYPWTFGGGTKLEIKR
modifications: N-terminal residue observed and modeled as pyroglutamate in the crystal structure
notes: Fab with the variable regions of mAb17; also called anti-hENTPD2 FAb23; anti-human ENTPD2 MAB17 Fab
B6: ANTI-HUMAN ENTPD2 MAB19 (antibody, human IgG1, kappa, V domains shown)
VH: EVQLQQFGAELVKPGTSVKISCKASGYTFTDYNMDWVKQSHGKSLEWIGDINPNYDITTYNQRFKGKATLTVDKSSSTAYMELRSLTSEDTAVYYCARRGFFPYYGNSYYYFDVWGAGTTVTVSS
VL: QIVLTQSPTIMSASLGEEITLTCSASSSVSYMHWYQQKSGTSPKLLIYSTSNLASGVPSRFSGSGSGTFYSLTISSVEAEDAADYYCHQWSNYPWTFGGGTKLEIKR
B7: ANTI-HUMAN ENTPD2 MAB20 (antibody, human IgG1, kappa, V domains shown)
VH: EVQLQQFGAELVKPGASVKISCKASGYTFTDYNMDWVKQSHGKSLEWIGDINPNYDITSYNQKFKGKATLTVDKSSSTAYMELRSLTSEDTAVYYCARRGFFLYYGSSYYYFDVWGAGTTVTVSS
VL: QIVLTQSPAIMSASLGEEITLTCSASSSVSYMHWYQQKSGTSPKLLIYSTSNLASGVPSRFSGSGSGTFYSLTISSVEAEDAADYYCHQWSSYPWTFGGGTKLEIKR
B8: ANTI-HUMAN ENTPD2 MAB16 (antibody, human IgG1, kappa, V domains shown)
VH: DIQLQESGPGLVKPSQSLSLTCSVTGYSITSGYYWNWIRQFPGNKLEWMGYISYDGDNNYNPSLKNRISITRDTSKNQFFLKLSSVTTEDTATYYCAGGYYRYGLSYYYVMDYWGQGTSVTVSS
VL: DTVLTQSPASLAVSLGQRATISCKASQSVDYDGNSYMNWYQQKPGQPPKLLIYAASNLESGIPARFSGSGSGTDFTLNIHPVEEEDAATYYCQQSNEDPPTFGGGTKLEIKR
B9: ANTI-HUMAN ENTPD2 FAB22 (Fab, V domains shown)
VH: EVKLEQSGPGLVKPSQSLSLTCSVTGYSITSGYYWNWIRQFPGNKLEWMSYISYDGDNNYNPSLKNRISITRDTSKNQFFLKLSSVTTEDTATYYCAGGYYRYGLSYYYVMDYWGQGTSVTVSA
VL: DIKMTQSPASLAVSLGQRATISCKASQSVDYDGNSYMNWYQQKPGQPPKLLIYAASNLESGIPARFSGSGSGTDFTLNIHPVEEEDAATYYCQQSNEDPPTFGGGTKLELKR
notes: Fab with the CDRs of mAb16; human CH1 and kappa constant regions; also called anti-hENTPD2 FAb22
B10: ANTI-HUMAN ENTPD2 MAB18 (antibody, human IgG1, kappa, V domains shown)
VH: DIQLQESGPGLVKPSQSLSLTCSVTGYSITSGYYWNWIRQFPGNKLEWMGYISYDGDNNYNPSLKNRISITRDTSKNQFFLKLSSVTTEDTATYYCAGGYYRYGLGSYSGSYYYVMDYWGQGTSVTVSS
VL: DTVLTQSPASLAVSLGQRATISCKASQSVDYDGNSYMNWYQQKPGQPPKLLIYAASNLESGIPARFSGSGSGTDFTLNIHPVEEEDAATYYCQQSNEDPPTFGGGTKLEIKR
B11: ANTI-HUMAN ENTPD2 MAB11 (antibody, human IgG1, kappa, V domains shown)
VH: EVQLLESGGGLVQSGGSLRLSCAASGFTFSSYAMSWVRQAPGKGLEWVSVISGSGGSTYYADSVKGRFTISRDNSKNTLYLQMNSLRAEDTAVYYCARGDDYGDDYYYYGMDVWGQGTTVTVSS
VL: not shown
B12: ANTI-HUMAN ENTPD2 MAB12 (antibody, human IgG1, kappa, V domains shown)
VH: EVLLVESGGGLVQPGGSLRLSCAASGFTFNSCSMNWVRQAPGKGLEWVSYISSSSSTIYYADSVKGRFTISRDNAKNSLYLQMNSLKDEDTAVYYCARDQGNWNYDDYYNGLDVWGQGTTVTVSS
VL: not shown

Columns and labels:
[1] = target: T1, mouse ENTPD2 expressed on cells; test: cell-based or functional assay
[2] = target: T2, human ENTPD2 expressed on cells; test: cell-based or functional assay
[3] = target: T3, cyno ENTPD2 expressed on NIH/3T3 cells; test: cell-based or functional assay
[4] = target: recombinant human ENTPD2 extracellular domain (residues 29-462) with C-terminal Avi-His6 tag (human, UniProt Q9Y5L3 29-462, biotinylated on the AviTag in the epitope binning assay); test: cell-based or functional assay
[5] = target: T4, recombinant human ENTPD2 (residues …); test: X-ray crystal structure of the complex
Procedure: Structure determination by molecular replacement was performed using the previously determined human ENTPD2 coordinates and Fab coordinates from PDB code 3QRG.

Binder | % inhibition, Human ENTPD2 NIH/3T3 Assay [2] [%] | IC50, Human ENTPD2 NIH/3T3 Assay [2] [nM] | IC50, ENTPD2 Biochemical Assay at 1 uM ATP [4] [nM] | also measured
B1 | – | – | – | ENTPD2 Functional Assay IC50 (mouse ENTPD2 NIH/3T3 cells) [1]: 5.9 nM
B2 | – | – | – | ENTPD2 Functional Assay IC50 (mouse ENTPD2 NIH/3T3 cells) [1]: 4.6 nM
B3 | 98 | 0.6 | 0.27 | % inhibition, RKO Assay [2]: 96%; IC50, RKO Assay [2]: 0.5 nM; % inhibition, Cyno ENTPD2 NIH/3T3 Assay [3]: 91%; IC50, Cyno ENTPD2 NIH/3T3 Assay [3]: 1 nM
B4 | – | – | 0.87 | –
B5 | – | – | – | buried solvent-accessible surface [5]: ~17500 Å2
B6 | – | – | 4.09 | –
B7 | – | – | 17.5 | –
B8 | 30 | > 133 | 77.3 | % inhibition, Cyno ENTPD2 NIH/3T3 Assay [3]: 5%; IC50, Cyno ENTPD2 NIH/3T3 Assay [3]: > 133 nM
B9 | – | – | – | buried solvent-accessible surface [5]: ~16700 Å2
B10 | 88 | 0.4 | – | % inhibition, Cyno ENTPD2 NIH/3T3 Assay [3]: 68%; IC50, Cyno ENTPD2 NIH/3T3 Assay [3]: 20 nM
B11 | 55 | 1.5 | – | –
B12 | 68 | 26.6 | – | –

Reference: patent US20220348651A1 (Novartis, published 2022)
